Experimental data taken from US20240218057A1 (ROCKEFELLER UNIVERSITY, published 2024).
Changes are numbered by the printed parent chain.

B1: C1044 (antibody, V domains shown)
VH: QVQLQESGPGLVKPSQTLSLTCTVSGGSISSGNYYLTWIRQPAGKGLEWIGHIYTSGSTNYNPSLKSRVTISVDTSMNQFSLKLSSVTAADTAVYYCARDIPPTWYFDLWGRGTLVTVSS
VL: SYELTQPPSVSVAPGKTARITCGGNNIGSKNVHWYQQKPGQAPVLVVYDDSDRPSGIPERFSGSNSGNTATLTISRVEAGDEAGYYCQVWDSTSDHLFWVFGGGTKLTVL
B2: C1045 (antibody, V domains shown)
VH: B1 VH with G27D, L36W, T37S, T59P, N62K, V73L, M77K, S85T, V94M, P103S
VL: B1 VL with T21P, N25T, N26D, V46A, N68S, G84D, T93S, S94G, H96R, F98S
B3: C1031 (antibody, V domains shown)
VH: QLQLQESGPGLVKPSETLSLTCTVSGGSINTSTYYWGWIRQPPGKGLEWIGNIYYSGITYYNPSLKSRVTISVDTSKNQFSLKLRSVTAADTAVYYCARQHRFGSGSSELLWGQGTLVTVSS
VL: QSALTQPPSASGSPGQSVTISCTGTSSDVGSYNYVSWYQQHPGKAPKLMIYEVTKRPSGVPDRFSGSKSGNTASLTVSGLQADDEADYYCSSYAGSSNLVFGGGTKLTV
B4: C1027 (antibody, V domains shown)
VH: EVQLVESGGGLVQPGGSLRLSCAASGFIVTTNYMSWVRQAPGKGLEWVSLIYPGGSTFYADSVEGRFTISRDNSKNTLYLQVNSLRVEDTAVYYCARDTFGRGDDHWGQGTLVTVSS
VL: DIQMTQSPSSLSASVGDRVTITCQASQDINIYLNWYQQRPGKAPKLLIYDASNLQTGVPSRFSGSGSGTDFTITISSLQPEDIATYYCQQYDNLPRSFGQGTKLEI
B5: C1046 (antibody, V domains shown)
VH: EVQLVQSGAEVKKPGESLKISCKGSGYSFTSYWIGWVRQMPGKGLEWMGIIYPGDSDTRYSPSFQGQVTISADKSISTAYLQWSSLKASDTAMYYCARMVTSGTYYYDNSGYSSSGPFDYWGQGTLVTVSS
VL: DIQLTQSPSSLSASVGDRVTITCRASQGISSALAWYQQKPGKAPKLLIYDASSLESGVPSRFSGSGSGTDFTLTISSLQPEDFATYYCQQFNNFGPGTKVDIK
B6: C1052 (antibody, V domains shown)
VH: QVQLVQSGAEVKKPGASVKVSCKVSGYTLSELSMHWVRQAPGEGLEWLGGFDPEDGETINAQKFQGRVTMTEDRSTDTAYMELSSLRSEDTAVYYCATRGRYCSSGNCYYHHWGQGTLVTVSS
VL: DIQMTQSPSTLSASVGDRVIITCRASQNIHNWLAWYQQKPGKAPKLLIYKASSLESGVPSRFSGSGSGTEFTLTISSLQPDDFATYFCQQYHSYSWTFGQGTKVEIK
B7: C1028 (antibody, V domains shown)
VH: QVQLVESGGGVVQPGRSLRLSCADSGFTFSSSGMHWVRQAPGKGLEWVGVISYDGGNKYYADSVKGRFTISRDNSKNTLYLQMNSLRAEDTAVYYCAKDTPGGDDIMTGWGLYGMDVWGQGTTVTVSS
VL: DIQMTQSPSSLSASVEDRVTITCRASQSISSYLNWYQQKPGKAPKLLIYAAISLQSGVPSRFSGSGSGTEFTLTISSLQPEDFATYYCQQSYTTPWAFGQGTKVEIK
B8: C1029 (antibody, V domains shown)
VH: QVQLVESGGGVVQPGRSLRLSCAASGFTFSSFGMHWVRQAPGKGLEWVAVISYDGSYKDYGDSVKGRFTISRDNSKNTLYLQMNSLRAEDTAVYYCARDSNVDTVMVTWFDYWGRGTLVTVSS
VL: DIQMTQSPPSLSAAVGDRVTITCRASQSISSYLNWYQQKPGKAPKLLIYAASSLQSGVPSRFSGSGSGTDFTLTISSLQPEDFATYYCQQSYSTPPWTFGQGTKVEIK
B9: C1030 (antibody, V domains shown)
VH: EVQLVESGGGLVQPGGSLRLSCEASGVIVSSNYMNWVRQAPGKGPEWVSVLYAGGSTFYADSVKGRFTISRDDSKNTLFLQMNNLRAEDTAVYFCARDLIAFGMDVWGQGTTVTVSS
VL: DIQLTQSPSFLSASVGDRVTITCRASQGINSDLAWYQQKPGKAPKLLIYGASTLQSGVPSRFSGSGSGTEFSLTVSSLQPEDFATYYCQQLNSYRRFGGGTKVEIK
B10: C1047 (antibody, V domains shown)
VH: EVQLVQSGAEVKKPGESLKISCKGSGYSFISYWIVWVRQMPGKGLEWIGIIYPGDSDTIYSPSFQGQVTLSADKSISTAYLQWSSLKASDTAIYYCAKMVTSGTSYYETRGYASSGPFDNWGQGTLVTVSS
VL: DIQLTQSPSSLSASVGDRVTITCRASQGISSALAWYQQKPGKAPKLLIYDASSLESGVPSRFSGSGSGTDFTLTISSLQPEDFATYYCQQSDNFGPGTKVDI
B11: C1038 (antibody, V domains shown)
VH: QVQLVQSGAEVKKPGASVKVSCKASGYTFTSYYMHWVRQAPGQGLEWMGIINPSGGSTRYAQKFQGRVTMTRDTSTSTVYMELSSLRSEDTAVYYCAREGVGGTSYFDYWGQGTLVTVSS
VL: SYELTQPPSVSVAPGKTARITCGGNNIGSKSVHWYQQKPGQAPVLVVYDDSDRPSGIPERFSGSNSGNTATLTISRVEAGDEADYYCQVWDSSSDPYVFGTGTKVTVL
B12: C1039 (antibody, V domains shown)
VH: QVQLVQSGAEVKKPGASVKVSCKASGYTFTSHYMHWVRQAPGQGLEWMGIINPRTRYAQMFQGRVSMNRDTSTSTVYMELSSLTSEDTAVYYCAREGLGATAYFDYWGQGTLVTVSS
VL: B11 VL with R19G, N25S, N26D, T106S
B13: C1034 (antibody, V domains shown)
VH: QLQLQESGPGLVKPSETLSLTCTVSGGSVSSNNHYWGWIRQPPGKGLEWIGSISSSGSTHHNPSLRSRVTISVDTSKNHFSLKLNSVTATDTAVYYCARVDSSGWYTGDVFDVWGQGTMVTVSS
VL: DIQMTQSPSSLSASVGDRVTITCRASQTINNYLNWYQQKPGKPPKLLIYAAFSLHSGVPSRFSGSRSGTDFTLTISSLQPEDFATYYCQHSYSTMCSFGQGTKLEIK
B14: C1026 (antibody, V domains shown)
VH: QVQLVESGGGVVQPGKSLRLSCAASGFIFSSYSMHWVRQAPGKGLEWVAVVSNDGSGKFYADSVRGRFTIFRDNSKNTLYLQVSSLRAEDTAVYYCARDALTSISVLFDCWGQGTLVTVSS
VL: DIQMTQSPSSLSASLGDRVTITCRASQSISNYLNWYQQKPGKAPKLLIYGASSLQSGVPSRFSGSGSGTDFTLTISNLQPEDFATYFCQQSYSTPSVTFGGGTKVEIK
B15: C1032 (antibody, V domains shown)
VH: EVQLVESGGSLVKPGGSLRLSCVASGLTFNHAWMSWVRQAPGKGLEWVGRIKSKIDGGTTDYAAPVKGRFTISRDDSKSTQYLQMNSLKTEDTAVYYCTTDCFWRLGGTTCYEHDAFDVWGQGTMVTVS
VL: DIQMTQSPSSLSASVGDRVTITCRASQAIATFLNWYQQKPGKAPKLLIYAASSLQSGVPSRFSGSGSGTDFTLTISSLQPEDFATYYCQQSYNSLHFGGGTKVEIK
B16: C1050 (antibody, V domains shown)
VH: EVQLVESGGGLVQPGRSLRLSCAASGFTFDDYGMHWVRQAPGKGLEWVSGISWNGDSIGYADSVKGRFTISRDNAKTSLYLQMNRLRAEDTALYYCAKAASRSTRIGGAFDIWGQGTMVTVSS
VL: QSALTQPASVSGSPGQSITISCTGTSSDVGGYNLVSWYQQHPGKAPKLMIYEGSKRPSGVSNRFSGSKSGNTASLTISGLQAEDEADYYCCSYAYSFTNVFGTGTKVTV
B17: C1051 (antibody, V domains shown)
VH: B16 VH with A23V, M34L, G55S, T69A, K76R
VL: B16 VL with H41Y, G53D, N62H, Y95F
B18: C1049 (antibody, V domains shown)
VH: EVQLVQSGAEVKKPGESLKISCKSSGYSFISHWIGWVRQMPGKGLEWMGIIWPGDSDTRYSPSFQGQVTISVDKSITTVYLQWSSLKAADTAMYYCARRGSSWEVDYWGQGTLVTVSS
VL: not shown
B19: C1048 (antibody, V domains shown)
VH: EVQLVQSGAEVKKPGESLKISCKVSGYSFISHWIGWVRQMPGKGLEWMGIIYPGDSDTRYSPSFQGQVTISADKSISTAYLQWSSLKASDTAMYYCARRGASWELDYWGQGTLVTV
VL: QSVLTQPPSASGTPGQRVTISCSGSSSNIGSNPVSWYQQLPGPAPQLLIYGNDQRPSGVPDRFSGSKSGTSASLAISGLQSEDEADYYCAAWDDSLNGYVFGTGTKVTVL
B20: C1040 (antibody, V domains shown)
VH: QVQLVESGGGVVQPGRSLRLSCAASGFSFINYNMHWVRQAPGKGLEWVAVIWYDGSNKYYADSVKGRFTISRDNSKNTLYLQMNSLRVEDTAVYYCARDPAITEAEIDYWGQGTLVTVSS
VL: DVVMTQSPLSLPVTLGQAASISCRSSQSLVHSDGNTYLNWFQQRPGQSPRRLIYRVSNRDSGVPDRFSASGSGTDFTLKISRVEAEDVGVYYCMQGTHWPWTFGQGTKVEIK
B21: C1033 (antibody, V domains shown)
VH: QVQLVQSGAEVKKPGSSVKVSCKASGGTFSRNVISWVRQAPGQGLEWMGGIIPMFGTANYAQKFQGRVTISADESTSTAYMELSSLRSEDTAVYYCAREDFILESAPIRENSYYYYGMDVWGQGTTVTVSS
VL: EIVLTQSPGTLSLSPGERATLSCRASQSVSSNYLAWYQQKPGQAPRLLIYDASSRATGIPDRFSGSGSGTDFTLTIRRLEPEDFAVYYCQQYGGSPRTFGQGTKVEIK
B22: C1035 (antibody, V domains shown)
VH: EVQLVESGGGLIQPGGSLRLSCAASGLTVSRNYMNWVRQAPGKGLEWVSVMYSGGSTFYADSVKGRFTISRDNSKNTLYLQMNSLRAEDTAVYYCARESYGMDVWGQGTTVTVSS
VL: B21 VL with V29F, N32T, D51G, R77S, G93V, G94T, R97W
B23: C1036 (antibody, V domains shown)
VH: B22 VH with T28I, A40V, S53A, N73D, A87P
VL: B21 VL with V29I, N32T, D51G, R77S, G93V, G94T, R97W
B24: C1043 (antibody, V domains shown)
VH: EVQLVESGGGLVQPGRSLRLSCAASGFIFDNYAMHWVRQAPGKGLEWVSGISWNSDSIGYADSVKGRFTISRDNAKNSLYLQMSSLRAEDTALYYCAKDLLGNYYYYTLDVWGQGTTVTVSS
VL: QSALTQPASVSGSPGQSITISCTGTSSDIGGNNYVSWYQQHPGKAPRLMIFDVSYRPSGVSNRFSGSKSGNTASLTISGLQAEDEADYYCISYTTSSTLGVFGGGTKLTVL

What follows are binders tested against T1, SARS-COV-2 RBD (SARS-COV-2, UniProt P0DTC2 319-539) (assay: ELISA, RBD coated on plate).
T1 construct: also called WT RBD

Binder | EC50 [ng/mL]
B1 | 3.22
B2 | 2.57
B3 | 7.23
B4 | 2.42
B5 | 3.8
B6 | 2.64
B7 | 3.58
B8 | 2.86
B9 | 2.78
B10 | 2.46
B11 | 2.46
B12 | 2.61
B13 | 2.77
B14 | 2.5
B15 | 2.89
B16 | 2.78
B17 | 1.4
B18 | 2.81
B19 | 2.41
B20 | 2.08
B21 | 3.63
B22 | 2.05
B23 | 1.02
B24 | 2.77
